# Experimental data from patent US20210395390A1.
# Experiments:
# [1] = molecular target: anti-FXIa antibody 076D-M007-H04-CDRL3-N110D; assay: ELISA, 076D-M007-H04-CDRL3-N110D coated at 1 µg/ml, anti-human lambda light chain-peroxidase detection
# [2] = molecular target: anti-FXIa antibody 076D-M007-H04-CDRL3-N110D; assay: cell-based or functional assay
Binder,EC50 [1],"Neutralizing activity, IC50 (biochemical FXIa assay) [2]",aPTT 1.5 X [2],aPTT 1.5 X (EC150) [2],biochemical FXIa assay IC 50 [2],"plasma based FXIa assay, IC50 [2]",plasma based assay IC 50 [2],Neutralizing activity (biochemical FXIa assay) (% inhibition at 1.00E-06 M) [2]
"TPP-8243 (antibody, human IgG1, lambda, V domains shown) VH: EVQLLESGGGLVQPGGSLRLSCAASGFTFSNYGIHWVRQAPGKGLEWVSAIGTGGDTYYADSVMGRFTISRDNSKNTLYLQMNSLRAEDTAVYYCARDRGYYDILTGLYDYWGQGTLVTVSS VL: QSVLTQPPSASGTPGQRVTISCSGSSSNIGNNAVNWYQQLPGTAPKLLIYGNYHRPSGVPDRFSGSKSGTSASLAISGLRSEDEADYYCSSYAGSNNWVFGGGTKLTVLG",0.256 nM,1.13 nM,0.3 µM,0.3 µM,1.1 nM,5 nM,5 nM,–
"TPP-8238 (antibody, human IgG1, lambda, V domains shown) VH: EVQLLESGGGLVQPGGSLRLSCAASGFTFSSYSMNWVRQAPGKGLEWVASISGSGANTYFADTVKGRFTISRDNSKNTLYLQMNSLRAEDTAMYYCARHGQVRLNYGSPTTVYNWFDRWGQGTLVTVSS VL: QSVLTQPPSASGTPGQRVTISCTGSSSNIGAGYDVHWYQQLPGTAPKLLIYGNSNRPSGVPDRFSGSKSGTSASLAISGLRSEDEADYYCAAWHDSLNGWVFGGGTKLTVLG",0.485 nM,–,–,–,–,–,–,75
"TPP-8236 (antibody, human IgG1, lambda, V domains shown) VH: EVQLLESGGGLVQPGGSLRLSCAASGFTFSDYYMNWVRQAPGKGLEWVSTISGTGAAAFYADSVRGRFTISRDNSKNTLYLQMNSLRAEDTAVYYCARDQYLTGGAFDIWGQGTLVTVSS VL: QSVLTQPPSASGTPGQRVTISCSGSSSNIGNNAVNWYQQLPGTAPKLLIYGNSNRPSGVPDRFSGSKSGTSASLAISGLRSEDEADYYCSSYRGSSTLVVFGGGTKLTVLG",0.484 nM,> 1000 nM,–,–,–,–,–,–

# Results, then the binder that gave them:
EC50 [1],"Neutralizing activity, IC50 (biochemical FXIa assay) [2]",aPTT 1.5 X [2],aPTT 1.5 X (EC150) [2],biochemical FXIa assay IC 50 [2],"plasma based FXIa assay, IC50 [2]",plasma based assay IC 50 [2],Neutralizing activity (biochemical FXIa assay) (% inhibition at 1.00E-06 M) [2],Binder
0.477 nM,> 1000 nM,–,–,–,–,–,–,"TPP-8246 (antibody, human IgG1, lambda, V domains shown) VH: EVQLLESGGGLVQPGGSLRLSCAASGFTFSSYSMNWVRQAPGKGLEWVSTISGSGGITHYADSVKGRFTISRDNSKNTLYLQMNSLRAEDTAVYYCARDRGNRVAARPAFDYWGQGTLVTVSS VL: QSVLTQPPSASGTPGQRVTISCTESSSNTGAGYDVHWYQQLPGTAPKLLIYGNTNRPSGVPDRFSGSKSGTSASLAISGLRSEDEADYYCASWDDNLGGWVFGGGTKLTVLG"
0.216 nM,> 1000 nM,–,–,–,–,–,–,"TPP-8240 (antibody, human IgG1, lambda, V domains shown) VH: EVQLLESGGGLVQPGGSLRLSCAASGFTFSSYAMSWVRQAPGKGLEWVAVISYDGSNKHYADSVKGRFTISRDNSKNTLYLQMNSLRAEDTAVYYCARDSMVRGKIFDYWGQGTLVTVSS VL: QSVLTQPPSASGTPGQRVTISCSGSSSNIGNNAVNWYQQLPGTAPKLLIYEDNKRPSGVPDRFSGSKSGTSASLAISGLRSEDEADYYCMIWHSSAWVFGGGTKLTVLG"
